# Reference: the supplement of paper PMC9170038
# Tested on: MS2 coat protein
# Assay: apparent KD of MS2 coat protein; designed switch direction (-1 OFF switch, 1 ON switch): -1; higher = weaker reporter binding
# In short: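 Designed RNA switches with common flanks were made on Illumina chips by stalled E. coli RNA polymerase. Titration with SNAP-549-labelled MS2 coat protein doubled from 0.7 or 1.5 nM up to 3 µM. Apparent KD is each design's median over clusters after curve-fitting normalised fluorescence.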
# [1] = Eterna round: R95, input ligand: microRNA oligo, concentration not stated
# [2] = Eterna round: R95, input ligand: FMN 200 uM
# [3] = Eterna round: R95, input ligand: none
sequence,measurement,setting,value
CUUUUGUGAGGAUAUUAGUAGUAAAUAAAUAAAAUUACUUCUGAGAAGGCACAUGAGGAUCACCCAUGUUCCUC [salish99_ex4_r3_063] (puzzle: Exclusion 4),apparent KD of MS2 coat protein,[1],36.9 nM
CUUUUGUGAGGAUAUUAUUAGUAAAUAAAUAAAAUUACUACUGAGAAGGCACAUGAGGAUCACCCAUGUUCCUC [salish99_ex4_r3_048] (puzzle: Exclusion 4),apparent KD of MS2 coat protein,[1],28.8 nM
"GAAAACGAAGAGGAUAUUUGAUAUCAUAGCUUCAAAGAAGGCUUCACAUGAGGAUCACCCAUGUGAUCUUCAAU [Mat - Exclusion 6 - JL Mod - D19] (Eterna round: R97, puzzle: Exclusion 6)",apparent KD of MS2 coat protein,input ligand: FMN 200 uM,116 nM
same,apparent KD of MS2 coat protein,input ligand: none,23.8 nM
"GAAAACGCAAAGGAUAUUACAGAUCAAAGCUGCUGAGAAGGUUGCACAUGAGGAUCACCCAUGUGGUCUUUCAA [Mod of Quesina 18 - Jieux - Exclusion 6] (Eterna round: R97, puzzle: Exclusion 6)",apparent KD of MS2 coat protein,input ligand: FMN 200 uM,213 nM
same,apparent KD of MS2 coat protein,input ligand: none,27.3 nM
"GAAAACGUAGGAUAUUAAUACUUAGACAUGAGGAUCACCCAUGUUUGGUGGGUUUAAGAAUGAGAAGGGCGAUGAA [EX5 #7] (Eterna round: R97, puzzle: Exclusion 5)",apparent KD of MS2 coat protein,input ligand: FMN 200 uM,222 nM
same,apparent KD of MS2 coat protein,input ligand: none,189 nM
"GAAAACUCAGGAUAUGCGUGAGAAAACUUGAGGAUCACCCAAGUGUGGUCCCGAUCUAAAGCAGAAGGGAGCAAAA [Lebidiraus] (Eterna round: R97, puzzle: Exclusion 5)",apparent KD of MS2 coat protein,input ligand: FMN 200 uM,1770 nM
same,apparent KD of MS2 coat protein,input ligand: none,353 nM
"GAAAAGAACGAGGAUAUGUUGGUGCAUACACUUGCAGAAGGCGUUACUUGAGGAUCACCCAAGUGAGACCGAGU [Cetelege] (Eterna round: R97, puzzle: Exclusion 6)",apparent KD of MS2 coat protein,input ligand: FMN 200 uM,273 nM
same,apparent KD of MS2 coat protein,input ligand: none,124 nM
GAAAAGAGAGGAUAUACAAGAAGAAAAGAAAAGAAAAGAAAACAUGAGGAUCACCCAUGUAGAAGGCUCAAAAG [Default title] (puzzle: Exclusion 2),apparent KD of MS2 coat protein,[2],18.2 nM
same,apparent KD of MS2 coat protein,[1],12.7 nM
same,apparent KD of MS2 coat protein,[3],20.3 nM
GAAAAGGUAGGAUAUACGAAAAAAAAGGGAAGAAAAAAAACACAUGAGGAUCACCCAUGUAGAAGGACCAAAAG [salish99_ex2_r3_064] (puzzle: Exclusion 2),apparent KD of MS2 coat protein,[2],34.4 nM
same,apparent KD of MS2 coat protein,[1],21.6 nM
same,apparent KD of MS2 coat protein,[3],20.6 nM
"GAAAAGGUAGGAUAUACGAAAAAAAAGGGUAGAAAAAAUACACAUGAGGAUCACCCAUGUAGAAGGACCAAAAG [salish99_ex2_r3_073] (Eterna round: R96, puzzle: Exclusion 2)",apparent KD of MS2 coat protein,"input ligand: microRNA oligo, concentration not stated",26.7 nM
GAAAAGGUAGGAUAUACGAAAAAAAAGGGUAGAAAAAAUACACAUGAGGAUCACCCAUGUAGAAGGACCAAAAG [salish99_ex2_r3_073] (puzzle: Exclusion 2),apparent KD of MS2 coat protein,[2],138 nM
same,apparent KD of MS2 coat protein,[1],23.9 nM
same,apparent KD of MS2 coat protein,[3],29.7 nM
GAAAAGGUAGGAUAUACGAAAAAAAAGGGUAGAUAAAAAACACAUGAGGAUCACCCAUGUAGAAGGACCAAAAG [salish99_ex2_r3_078] (puzzle: Exclusion 2),apparent KD of MS2 coat protein,[2],101 nM
same,apparent KD of MS2 coat protein,[1],41.8 nM
same,apparent KD of MS2 coat protein,[3],29.3 nM
GAAAAGGUAGGAUAUACGAAAAAAAAGGGUAGUAAAAAAACACAUGAGGAUCACCCAUGUAGAAGGACCAAAAG [salish99_ex2_r3_079] (puzzle: Exclusion 2),apparent KD of MS2 coat protein,[2],35.7 nM
same,apparent KD of MS2 coat protein,[1],20.9 nM
same,apparent KD of MS2 coat protein,[3],18.6 nM
"GAAAAUAGUGAGGAUAUAUCACGGAUACCCGAGAUAGAAGGCACUACAUGAGGAUCACCCAUGUUCGGGUGUCC [Areleon] (Eterna round: R97, puzzle: Exclusion 6)",apparent KD of MS2 coat protein,input ligand: FMN 200 uM,107 nM
same,apparent KD of MS2 coat protein,input ligand: none,79.3 nM
"GAAAGGUAAGGAUAUGCGACUACGGUGAGAUGGUUGACCUGACAUGAGGAUCACCCAUGUAGAAGGUGCUCAAU [Eternabot (L2) Solution 33] (Eterna round: R97, puzzle: Exclusion 2)",apparent KD of MS2 coat protein,input ligand: FMN 200 uM,67.8 nM
same,apparent KD of MS2 coat protein,input ligand: none,64.2 nM
